The text below walks through data of article doi:10.1101/2025.08.17.670746, “Post-transcriptional regulation of meiotic transcripts by the RNA binding protein CDM1 is associated with cytoplasmic condensate assemblies” (bioRxiv, 2025).

The data set concerns the molecule itself. The data set can be described thus: pull-down; equimolar His6-MBP-CDM1-GFP and TEV-cleaved CDM1-GFP mixed in 20 mM HEPES pH 7.4, 150 mM KCl, 1 mM DTT, room temperature, 2 h; precipitated with anti-His antibody and Protein G beads; blot with anti-GFP.

B1: CALLOSE … MICROSPORES1 (CDM1) fused to G3GFP, made in E. coli (His6-MBP-CDM1-GFP and its TEV-cleaved form CDM1-GFP) (natural protein, Arabidopsis thaliana, UniProt Q9C9F5 1-308, looked up)
chain: MENKIAPFSYSGSSAGNSSSGGVVSSSLYSDQLYKSTRNIMQQRQDMVNREALCYTRLHEASLEAEALRLENTELRSMNLRLKNELNSLIRSSIQNRFDHRSPLRMLSNLSIGGNDADEVENQNRTVNRDDVNDKSPTSVMENEDLNRSSLPKSISVRSNGYSKASQGGGGAAAQSGKPRGTVTKPGTCGQVSTTQKVYVRGGGKKEDQEEEIEVEVYNQGMTKTELCNKWQETGTCPYGDHCQFAHGIKELRPVIRHPRYKTEVCRMVLAGDNCPYGHRCHFRHSLSEQEKLVAAGFKPKSSLKLIT
notes: CDM1 (CALLOSE … MICROSPORE1, C3H15), Arabidopsis thaliana, At1G68200; Self-association test with two differently tagged copies: the bait copy kept His6-MBP (His6-MBP-CDM1-GFP); Both copies carry the C-terminal G3GFP, by which they were detected; also called C3H15; His-MBP-CDM1-G3GFP; source: E. coli BL21-Rosetta, purified (His Mag Sepharose Ni beads, dialysed); not shown: His6, N-terminal, kept; …
Consider B1, for which the binding result was “binds”.
